Data on 1 substance can be found in PMC2768988.

What is called koff is the rate constant with which the complex falls apart. As usually defined, the kon is the rate constant with which the complex forms. High values mean fast association, low ones slow association. The Kd is a measure of binding affinity in units of concentration.

Assay [1] deals with Flrt1b ectodomain (zebrafish). The assay can be described thus: SPR; BIAcore, kinetic analysis; same surfaces; three concentrations of Unc5b-Cd4d3+4-6His, flow 100 μl/min, 10 Hz, global fit of first-order decay and of an association model; HBS-EP, 28°C; purification of the Flrt baits not stated. On the technique in general: Surface plasmon resonance follows binding to a sensor surface in real time, without labels.

Assay [2] has as its target Flrt1a ectodomain (zebrafish). The assay is described as above.
Assay [3] concerns the target Flrt3 ectodomain (zebrafish). The description is as above.
Assay [4] deals with Flrt1b ectodomain (zebrafish). In words: SPR; BIAcore, equilibrium analysis; biotinylated Flrt-Cd4d3+4-bio baits (about 1000 RU) on a streptavidin-coated chip, Cd4d3+4-bio as reference; purified monomeric Unc5b-Cd4d3+4-6His injected; HBS-EP, 28°C; purification of the Flrt baits not stated.
Assay [5] deals with Flrt1a ectodomain (zebrafish). The description is as above.
The target in assay [6] is Flrt3 ectodomain (zebrafish). Described as above.

Unc5b-Cd4d3+4-6His (domain or fragment): the koff in assay [1] is 0.6 s⁻¹; in assay [2], more than 7 s⁻¹. Besides, the kon in assay [1], in assay [2] and in assay [3] was more than 100000 M⁻¹ s⁻¹ each time. Besides, the t1/2 is 1.2 s in assay [1] and less than 0.1 s in assay [2]. In addition, the Kd in assay [4] is 4 µM; in assay [5], more than 50 µM; in assay [6], 14 µM.
